Assay results: publication PMC5906591

Target: HigA2Ab-His antitoxin (C-terminal His-tag fusion, from pET-HigBA-His) (Acinetobacter baumannii)
Test: SEC

How did the stoichiometry N (toxin:antitoxin) turn out when “HigB2Ab toxin, untagged (co-expressed from pET-HigBA-His or pET-HigB-His6-TEV-HigA)” was run?
The stoichiometry N (toxin:antitoxin) was 1.
